Read-outs that look alike come from different tables or passages of the source.
Key:
[1] = target: PhoB (Escherichia coli) (UniProt P0AFJ5); conditions: cited from earlier work
[2] = target: PhoB (Escherichia coli) (UniProt P0AFJ5); conditions: cited from earlier work; remark: listed apart in the source
[3] = target: the molecule itself; test: AUC
[4] = target: the molecule itself; test: AUC; remark: listed apart in the source
[5] = target: T1, OmpR (Escherichia coli, UniProt P0AA16 1-239); test: ITC
T1 sequence: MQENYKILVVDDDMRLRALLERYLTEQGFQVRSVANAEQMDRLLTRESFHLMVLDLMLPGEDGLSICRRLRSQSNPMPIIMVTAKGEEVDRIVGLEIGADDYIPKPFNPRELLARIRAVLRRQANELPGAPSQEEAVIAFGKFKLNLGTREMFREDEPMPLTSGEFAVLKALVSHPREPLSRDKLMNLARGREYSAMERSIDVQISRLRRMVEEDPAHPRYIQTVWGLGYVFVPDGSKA

Chain of PhoB (Escherichia coli) (P0AFJ5 whole entry): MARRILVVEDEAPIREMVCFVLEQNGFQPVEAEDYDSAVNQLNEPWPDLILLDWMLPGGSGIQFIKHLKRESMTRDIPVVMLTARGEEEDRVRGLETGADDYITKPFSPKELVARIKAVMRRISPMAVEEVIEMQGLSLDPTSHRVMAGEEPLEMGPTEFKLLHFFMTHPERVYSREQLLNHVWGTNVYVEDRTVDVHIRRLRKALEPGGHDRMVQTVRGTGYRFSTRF

PhoB (from UniProt P0AFJ5)
Kd [1]: 5.1 µM
Kd [2]: 380 µM

B1: OmpR (unphosphorylated, untreated) (natural protein, Escherichia coli, UniProt P0AA16 1-239, looked up)
chain: MQENYKILVVDDDMRLRALLERYLTEQGFQVRSVANAEQMDRLLTRESFHLMVLDLMLPGEDGLSICRRLRSQSNPMPIIMVTAKGEEVDRIVGLEIGADDYIPKPFNPRELLARIRAVLRRQANELPGAPSQEEAVIAFGKFKLNLGTREMFREDEPMPLTSGEFAVLKALVSHPREPLSRDKLMNLARGREYSAMERSIDVQISRLRRMVEEDPAHPRYIQTVWGLGYVFVPDGSKA
Kd [3]: 1100 µM
stoichiometry N [3]: 2

B2: BeF3−-treated OmpR (natural protein, Escherichia coli, UniProt P0AA16 1-239, looked up)
chain: MQENYKILVVDDDMRLRALLERYLTEQGFQVRSVANAEQMDRLLTRESFHLMVLDLMLPGEDGLSICRRLRSQSNPMPIIMVTAKGEEVDRIVGLEIGADDYIPKPFNPRELLARIRAVLRRQANELPGAPSQEEAVIAFGKFKLNLGTREMFREDEPMPLTSGEFAVLKALVSHPREPLSRDKLMNLARGREYSAMERSIDVQISRLRRMVEEDPAHPRYIQTVWGLGYVFVPDGSKA
modifications: BeF3− (noncovalent small molecule phosphoryl analog); residue not given
Kd [4]: 7 µM
stoichiometry N [4]: 2

B3: F1 (dsDNA)
DNA 1: GCTTTACTTTTGGTTACATATTTCG
DNA 2: CGAAATATGTAACCAAAAGTAAAGC
Kd [5]: 2 µM

Source: paper PMC3646996 (Journal of molecular biology, 2013)
